Test system: GST-RFP-SPSS/FXa-GFP-His6 fluorescent fusion protein [GST: P08515]

Substance: coagulation factor Xa
- SDS-PAGE and Western blot of substrate cleavage products (GST-RFP and GFP-His): demonstrated specific cleavage of the substrate by FXa, as the amounts of the native proteins decreased while the amounts of the two truncated products (GST-RFP and GFP-His) increased with increasing concentrations of FXa
